Source: the nanobody polyreactivity screen of Harvey et al. (2022)

Test: yeast display, Sf9 membrane polyspecificity reagent, FACS + sequencing; frameworks hold sequencing errors
Summary of the method: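 Nanobodies from a synthetic yeast display library (Saccharomyces cerevisiae BJ5465), induced 36–48 hours with galactose, were stained 1 hour at 4 °C with 10% biotinylated, detergent-solubilized Sf9 membrane reagent, enriched on streptavidin microbeads, then FACS-sorted. Anti-HA (expression) and streptavidin (reagent binding) fluorescence set low and high (top ~1%) gates. Polyreactivity labels come from the gate of origin. Genes were colony-PCR amplified, MiSeq 2 × 250 sequenced and filtered by CDR length.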

| Sequence | polyreactivity (PSR sort gate) |
| --- | --- |
| QVQLVESGGGLVQAGGSLRLSCAASGSISSYYAMGWYRQAPGQERELVAAITLNGGNTYYADSVKGRFTISRDNAKKTVYLQMNSLKPEDTAVYYCARRYRYGTKYYYWGQGTQVTVSS | high polyreactivity |
| QVQLVESGGGLVHAGCSLRLSCSASGRISGYAMGWYRQAPGKERELVAAISKSAARTYYADSVKGRFTISRDNAKNTVYLQMNSLKAEDTAVYYCAADKPYRYDYWGQGTQVTVSS | high polyreactivity |
| QVQLVESGVGLVQAGGSLRLSCAASGRTFPPYAMGWYRQAPGKERELVAAISSDGSTYADSVKGRFTISRDNAKNTVYLQMNSLKPEDTAVYYCAVDYTYSYRKHFGHILYSWGQGTQVTVSS | low polyreactivity |
| QVQLVESGGGLVQAGGSLRLSCAASGSTFHRYTMGWYRQAPGKEWELVAAISWSGGSTYYADSVKGRFTISRDNAKNTVYLQMNSLKPEDTAVYYCAAVKPAEALDYWGQGTQVTVSS | high polyreactivity |
| QVQLVESGGGLVQAGGSLRLSCAASGITFPRYVMGWYRQAPGKERELVAAISTSGGSTYYADSVKGRFTISRDNAKNTVYLQMNSLKPEDTAVYYCAALDIYSSTYPVEYDYWGQGTQVTVSS | high polyreactivity |
| QVQHVESGGGLVQAGGSLRLICAASGLTFPYYAMGWYRQDAGKVSELVAAITWSGGTTDYADSVKGRFTISRDNAKNTVYFKMITLKPEDTAVYFCAARVLWKGYYWGQGTQVTVSS | low polyreactivity |
| QVQLVESGGGLVQAGGSLRLSSAASGRIFYRNAMGWCRQAPGKERELVASITSAGRRYYADSVKGRFTISRDNAKNTVYLQMNSLKPEDTAVYYCAVRVAVLLNLYGYWGQGTQVTVSS | low polyreactivity |
| QDQLVESGVGLVQAGGILRLSCAASVSTFNRYAMVWYRQAPGKERELVAAISSSGGYTYYADSVKGRFTNSRDNAKNTVYFQMNSLKAEDTAVYYCNAAYRVRRFDYWGQGTQVTVSS | low polyreactivity |
| QVQLVESGGGLVQAGGSLRLSCAASGSTLDSNAMGWYRQATGKERELVAAIDWSGGSTYYADSVKGRFTISRDHAKNTVYLQMNSLKPEDTAVYYCAADDSSINYGDFDYWGQGTQVTVSS | low polyreactivity |
| QVQLVESGGGLVQAGGSLRLSCAASGSTLQSYAMGWYRQAPGKERELVAGIRISGGNTRYADSVKGRFTISRDNAKNTVYLQMNSLKPEDTAVYYCAALTGFYNLRPYGYWGQGTQVTVSS | high polyreactivity |
| QVQLQESRGGPVLAGGSLRLSCAASGTIFVRLDMGWYRQAPGKEREFVATIGSGSSTYYADSVKGSFTISRDNVKNTVYLQMNSLKPEDTAVYYCAVSAAEQSRHYYWDQGTQVTVSS | low polyreactivity |
| QVQLVESGGRLVQAGGSLRLRCAASGYIFVYNAKGWYRQAPGKARELVAAITDGGGSTYADSVKGRFTISRDNAKNTVYLQMNSLKPEDTAVYYCAARYSDTTWYVLYYYWVQGTQVTVSS | low polyreactivity |
| QVQLVESGGCLVQAGGSLRLSCAASGSIFAEYAMGWSRQAPGKERELVASISSRGGRTFYADSVKGRFTISRDNAKNTVYLQMNSLKPEDTAVYYCNALRIYITKKTGYGYWGQGTQVTVSS | high polyreactivity |
| QVQLVESGGCLVQAGGSLRLSCAASGRIFYDNVMGLYRQAPGKEREFVAAISRRGGSTDYADSVKGRFTISRDNAKNTVYLQMNSLKPEDTAVYYCADDAPGADFDYWGQGTQVTVSS | low polyreactivity |
| QVQLVESGGGLVQAGGSLRLSCAASGGIFQGYAMGWYRQAAGKERELVAAITRGGSTNYADSVKGRFTISRDNAKNTVYLQMNSLKPEDTAVYYFAARPRWFKGYDYWGQGTQVTVSS | high polyreactivity |
| QVQLVESGGGLVQAGGSLRLSCAASGGTFYRNAMGWYRQAPGKERELVASISRTGGSTYYADSVKGRFTISRDIAKNTVYLQMNSLKPEDTAVYYCAKKQPRYSYFDNDYWGQGTQVTVSS | high polyreactivity |
| QVQLVESGGGLVQAGGSLRLSCAASGSILVSYAMGWYRQAPGKERELVAAITSGGRTKYADSVKGRFTISRDNAKNTVYLQMNSLKPEDTAVYYCAADDPLSYQFDYWGQGTQVTVSS | high polyreactivity |
| QVQLVESGGGLVQAGGSLRLSCAASGYTFYSNAMGWYRQAPRKERELVASIRSRGRSTYYADSVKGRFTISRDNAKNTVDLQMNSLKPEDTAVYYCAALPNKPAVYAYDYWGQGTQVTVSS | low polyreactivity |
| QVQLVESGGGLVQAGGSLRLSCAASGFTFDTNVRGWYRQAPGKERELVAAITGPGGSTYYADSVKGRFTISRDNAKNTVYLQMNSLNPEDTAVYYCNRVYYRRRLYDYWGQGTQVTVSS | high polyreactivity |
| QVQLVESAGYLVQAAASLRLSCAASGLIFVYYALGWYRQAPGKERELVAFITSVGSTYYGDSVKGRFTISRDNAKYTVYLQMNSVNPEDTAVYYCAAEWEFYGFDYWGQGTQVTVSA | low polyreactivity |
| QVQLVESGGGLVQAGGSLRLSCAASGITFIRNGMGWYRQAPGKERELVAAISYTGARTYYADSVKGRFTISRDNAKNTVYLQMNSLKPEDNAVYYCAAEVRTRYLYSFRWYDYWGEGTQVTVSS | low polyreactivity |
| QVQLVESGGGLVQAGGSLRLSCAASGSTFLRYAMGWYIQAPGKERELVATISTSRGSTHYADSVKGRFTISRYNAKNTVYLQMNSLKPEDSAVYYCATRGGKWYYRTRQPYPYAMDYWGQGTQVTVSS | high polyreactivity |

| Sequence | polyreactivity (PSR sort gate) |
| --- | --- |
| QVQLVESGGGLVQAGGSLRLSSAASGRIFYNYAMGWYRQSPGKERELVAAISGSGGSTYYADSVKGRFTISRDNAKNTVYLQMNSLKPEDTAVFYCSTSGPQYYSRNFDYWGQGTQVTVSS | low polyreactivity |
| QVQLVESGGGLVQAGGSLRLSCAASGRTFEYYAMGWYRQAPGKERELVAAITSGGITYYADSVKGRFTISRDNAKYTVYLQMNSLKPEDTAVYYCNARHRYYRYGYWGQGTQVTVSS | high polyreactivity |
| QVQLVESGGGLVQAGGSLRLSCAASVSIILDNAMGWYRQAPGKERELVASIDWSGGSTDYADSVKGRFTISRDNAKNTVYLQMNSLKPEDTAVYYCNAERYPYRLRARKLDYWGQGTQVTVSS | low polyreactivity |
| QVQLVESGGGLVQAGGSLRLSCAASGSTFIGNAMGWYRQAPGKERELVAAITSSGGSTYYADSVKGRFTISRDNAKNTVYLQMNSLKPEDTAVYYCAAKSRRTRRSYYWGQGTQVTVSS | high polyreactivity |
| QVQLVESGGGLVQAGGSLRLSCAASGRIFTTNAMGWYRQAPGKERELVAAITYSGGTTYYADSVKGRFTISRDNAKNTVYLQMNSLKPEDTAVYYCAADVKFSTPYDYWGQGTQVTVSS | low polyreactivity |
| QVQLVESGGGLVQAGGSLRLSCAASGIFSRYAIGWYRQAPGKERELVAAISSGDSTNYADSVKGRFTISRDNAKNTVYLQMNSLKPEDTAVYYCATERSHLATGQGYYYVQTFYYWGQGTQVTVSS | low polyreactivity |
| QVQLVESGGGLVQAGGSLRLSCAASGSTLYYYTMGWYRQAPGKERELVAAINWSGTITYYADSVKGRFTISRDNAKNTVYLQMNSLKPEDTAVYYCNAVYYRQGFDYWGQGTQVTVSS | high polyreactivity |
| QVQLVESGGGLVQAGGSLRLSCAASGITFMFYAMGWSRQAPGKVRELVAAISSSGGTTYYADSVKGRFTISRDNAKNTVYLQMNSLTPEDTAVYYCAARRVLASWYDYNYWGQGTQVTVSS | high polyreactivity |
| QVQLVESGGGLVQAGGSLRLICAASGFIFRVYAMGWYRQAPGKERALVATITYDGGRTYYADSVKGRFTISRDNAKNTVYLQMNSLKPEDTAVFGYWGQGTQVTVSS | low polyreactivity |
| QVQLVESAGGLVQAGGSLRLSCDASGRTFRYYVMGWYRQAPGNERELVAAISWSGCRTNYADSVKGRYTISGDNAKNTVYLQMNSLKPEDSAVYYCNAPRPALRRYDYWGQGTQVTVSS | high polyreactivity |
| QVQLVESGGGLVQAGGSLRLSFAASGIIFVGYAMGWYRQAPGKEMELVAAISTSSRTYYADSVKGRFTISRDNAKNTVYLQMNIQKPEDTAVYYCNARGTRWYYRHEYWGQGTQVTVSS | high polyreactivity |
| QVQLVESGGGLVQAGGSLRLSCAASGRFFSWNAMGWYRPAPGTERELVAAISSSVGSTYYADSVKGRFTISRDNAQNTVYFQMNSRKPEDTAVYYCNAVPIGQWAYDYWGQGTQVTVSS | high polyreactivity |
| QVQLVESGGCLVEAGGSLRLSCAASGRIFVHKAMGWYRQAPGKEREFVAAISLRGGSTYYADSVKGRFTISRDNAKNTVYLQMNFLKPEVTAVYYCAAVPAHFYGYDYWGQGTQVTVSS | low polyreactivity |
| QVQLVESGGGLDQAGGSLRLSCAASGRIFYYYPMGWYRQAPGKERELVAGIDSGDSTNYADSVKGRFTITRDNAKNTVYLQINSLKPEDTAVYYCAALHYGGYFSYYPYYYWGQGTQATVSS | low polyreactivity |
| QGQLVESGGGLVQAGGSLRLSCAASGSIFGQYVMGWYRQAPGKERELVAAISGTGGSTYYADSVKGRFTISRDNAKNTVYLQMNSLKPEDTAVYYCAVVHRSSYRESGLLWRYYWGQGTQVTVSS | high polyreactivity |
| QVQLVESGGGLVQAGGSLRLSCAASGLIFRSYAMGWYRQEPGKERELVARISIRGGSTYYADSVKGRFTISRDNAKNTVYLQMNSLKPEDTAVYYCAADYASWSNWGYEYWGQGTQVTVSS | high polyreactivity |
| QVQLVESGGGLVQAGGSLRLTCAASASTFKPYAMGWDRQAPGKERELVAAINGSGGDTYYADSVKGRFTISRDNAKTTVYLQMNSLKPEDTAVYYCAAQWGYYNYWYGYWGQGSQVTVSS | low polyreactivity |
| QVQLVESGGGLVQAGGSLRLSCAASGSIFAGYAIGWYRQAPGKERELVAAISWSGGGTYYADSVKGRFTISRDNAKNTVYLQMNSLKPEDTAVYYCNAYGYRHRGNGYWGQGTQVTVSS | high polyreactivity |
| QVQLVESGGGLVQAGGSLRLSCAASGSIFSWYAMGWYRQAPGKEWELVAAITWSGGSTYYADSVKGRFTISRDNAKKTVYLQMNSLKPEDTAVYYCAASYDIYGNYRRYDYWGQGTQVTVSS | high polyreactivity |
| QVQLVESGGGLVQAGGSLRLSCAASGSIFVLYAMGWSRQAPGKERELVAAITTGGGTNYADSVKGRFTISRDNAKNTVYLQMNSLKPEDTAVYYCAAADSTWFDWGNYWYYYWGQGTQVTVSS | low polyreactivity |
| QVHLEESGRGLLQAGGSLRLSCDASGSTQNLYVMGWYRQAPGKESELVAAITSRGGRTYYADSVKGRFTISRDNAKNTVYLHMNSLKPEDTAVYYCAATKKTGYYRYYYWGQGTQVTVSS | high polyreactivity |
